B1: Azoarcus group I ribozyme (parent)
chain: GUGCCUUGCGCCGGGAAACCACGCAAGGGAUGGUGUCAAAUUCGGCGAAACCUAAGCGCCCGCCCGGGCGUAUGGCAACGCCGAGCCAAGCUUCGGCGCCUGCGCCGAUGAAGGUGUAGAGACUAGACGGCACCCACCUAAGGCAAACGCUAUGGUGAAGGCAUAGUCCAGGGAGUGGCGAAAGUCACACAAACCGG

The variants in the data set derive from B1. As to the kind of experiment: reverse-splicing fitness (ratio to wild type); higher = more active; in vitro selection; Mg2+ level not given. The procedure, abridged: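 An in vitro group I ribozyme library with randomized positions was T7-transcribed and gel-purified. In triplicate, 10 pmol RNA in EPPS pH 7.5 was reacted with 50 pmoles of a 30-nt RNA substrate for 1 h at 37 °C across several added MgCl2 levels (1–48 mM), then stopped with EDTA. Products were reverse transcribed from a substrate-complementary primer, PCR-amplified and sequenced (HiSeq 4000). Fitness is a variant's read proportion after selection over that before, normalised to wild type.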
Turning to GUGCCUUGCGCCGGGAAACCACGCAAGGGAUGGUGUCAAAUUCGGCGAAACCUAAGCGCCCGCCCGGGCGUAUGGCAACGCCGAGCCAAGCUUCGGCGCCUGCGCCGAUGUAGGUGUAGGGACUAGACGGCACCCACCUAAGGCGAACGAUAUGGUGAAGGCAUAGUCGAGGGAGAGGCGAAAGUCACACAAACCGG [A111U A120G A145G C150A C169G U176A], the reverse-splicing fitness turned out to be 0.0198.

Consider GUGCCUUGCGCCGGGAAACCACGCAAGGGAUGGUGUCAAAUUCGGCGAAACCUAAGCGCCCGCCCGGGCGUAUGGCAACGCCGAGCCAAGCUUCGGCGCCUGCGCCGAUGUAGGUGUAGGGACUAGACGGCACCCACCUAAGGCGAACGUUAUGGUGAAGGCAUAGUCAAGGGAGUGGCGAAAGUCACACAAACCGG [A111U A120G A145G C150U C169A], for which the reverse-splicing fitness was 0.0845.

Regarding GUGCCUUGCGCCGGGAAACCACGCAAGGGAUGGUGUCAAAUUCGGCGAAACCUAAGCGCCCGCCCGGGCGUAUGGCAACGCCGAGCCAAGCUUCGGCGCCUGCGCCGAUGUAGGUGUAGGGACUAGACGGCACCCACCUAAGGCGAACGGUAUGGUGAAGGCAUAGUCCAGGGAGGGGCGAAAGUCACACAAACCGG [A111U A120G A145G C150G U176G], the reverse-splicing fitness came to 0.00598.

For the variant GUGCCUUGCGCCGGGAAACCACGCAAGGGAUGGUGUCAAAUUCGGCGAAACCUAAGCGCCCGCCCGGGCGUAUGGCAACGCCGAGCCAAGCUUCGGCGCCUGCGCCGAUGUAGGUGUAGGGACUAGACGGCACCCACCUAAGGCGAACGGUAUGGUGAAGGCAUAGUCCAGGGAGCGGCGAAAGUCACACAAACCGG [A111U A120G A145G C150G U176C], the reverse-splicing fitness turned out to be 0.0156.

GUGCCUUGCGCCGGGAAACCACGCAAGGGAUGGUGUCAAAUUCGGCGAAACCUAAGCGCCCGCCCGGGCGUAUGGCAACGCCGAGCCAAGCUUCGGCGCCUGCGCCGAUGUAGGUGUAGGGACUAGACGGCACCCACCUAAGGCGAACGGUAUGGUGAAGGCAUAGUCCAGGGAGAGGCGAAAGUCACACAAACCGG [A111U A120G A145G C150G U176A]: the reverse-splicing fitness stood at 0.0103.

In the case of GUGCCUUGCGCCGGGAAACCACGCAAGGGAUGGUGUCAAAUUCGGCGAAACCUAAGCGCCCGCCCGGGCGUAUGGCAACGCCGAGCCAAGCUUCGGCGCCUGCGCCGAUGUAGGUGUAGGGACUAGACGGCACCCACCUAAGGCGAACGGUAUGGUGAAGGCAUAGUCAAGGGAGCGGCGAAAGUCACACAAACCGG [A111U A120G A145G C150G C169A U176C], the reverse-splicing fitness was 0.0131.

On to GUGCCUUGCGCCGGGAAACCACGCAAGGGAUGGUGUCAAAUUCGGCGAAACCUAAGCGCCCGCCCGGGCGUAUGGCAACGCCGAGCCAAGCUUCGGCGCCUGCGCCGAUGUAGGUGUAGGGACUAGACGGCACCCACCUAAGGCGAACGGUAUGGUGAAGGCAUAGUCAAGGGAGGGGCGAAAGUCACACAAACCGG [A111U A120G A145G C150G C169A U176G], for which the reverse-splicing fitness came to 0.00787.

On to GUGCCUUGCGCCGGGAAACCACGCAAGGGAUGGUGUCAAAUUCGGCGAAACCUAAGCGCCCGCCCGGGCGUAUGGCAACGCCGAGCCAAGCUUCGGCGCCUGCGCCGAUGUAGGUGUAGGGACUAGACGGCACCCACCUAAGGCGAACGGUAUGGUGAAGGCAUAGUCAAGGGAGAGGCGAAAGUCACACAAACCGG [A111U A120G A145G C150G C169A U176A], for which the reverse-splicing fitness was 0.0126.

In the case of GUGCCUUGCGCCGGGAAACCACGCAAGGGAUGGUGUCAAAUUCGGCGAAACCUAAGCGCCCGCCCGGGCGUAUGGCAACGCCGAGCCAAGCUUCGGCGCCUGCGCCGAUGUAGGUGUAGGGACUAGACGGCACCCACCUAAGGCGAACGGUAUGGUGAAGGCAUAGUCUAGGGAGUGGCGAAAGUCACACAAACCGG [A111U A120G A145G C150G C169U], the reverse-splicing fitness is 0.0237.

Regarding GUGCCUUGCGCCGGGAAACCACGCAAGGGAUGGUGUCAAAUUCGGCGAAACCUAAGCGCCCGCCCGGGCGUAUGGCAACGCCGAGCCAAGCUUCGGCGCCUGCGCCGAUGUAGGUGUAGGGACUAGACGGCACCCACCUAAGGCGAACGGUAUGGUGAAGGCAUAGUCAAGGGAGUGGCGAAAGUCACACAAACCGG [A111U A120G A145G C150G C169A], the reverse-splicing fitness came out at 0.0157.

As to GUGCCUUGCGCCGGGAAACCACGCAAGGGAUGGUGUCAAAUUCGGCGAAACCUAAGCGCCCGCCCGGGCGUAUGGCAACGCCGAGCCAAGCUUCGGCGCCUGCGCCGAUGUAGGUGUAGGGACUAGACGGCACCCACCUAAGGCGAACGGUAUGGUGAAGGCAUAGUCGAGGGAGUGGCGAAAGUCACACAAACCGG [A111U A120G A145G C150G C169G], the reverse-splicing fitness was found to be 0.0234.

In the case of GUGCCUUGCGCCGGGAAACCACGCAAGGGAUGGUGUCAAAUUCGGCGAAACCUAAGCGCCCGCCCGGGCGUAUGGCAACGCCGAGCCAAGCUUCGGCGCCUGCGCCGAUGUAGGUGUAGGGACUAGACGGCACCCACCUAAGGCGAACGAUAUGGUGAAGGCAUAGUCAAGGGAGGGGCGAAAGUCACACAAACCGG [A111U A120G A145G C150A C169A U176G], the reverse-splicing fitness was found to be 0.00599.

Consider GUGCCUUGCGCCGGGAAACCACGCAAGGGAUGGUGUCAAAUUCGGCGAAACCUAAGCGCCCGCCCGGGCGUAUGGCAACGCCGAGCCAAGCUUCGGCGCCUGCGCCGAUGUAGGUGUAGGGACUAGACGGCACCCACCUAAGGCGAACGGUAUGGUGAAGGCAUAGUCUAGGGAGGGGCGAAAGUCACACAAACCGG [A111U A120G A145G C150G C169U U176G], for which the reverse-splicing fitness amounted to 0.00728.

Turning to GUGCCUUGCGCCGGGAAACCACGCAAGGGAUGGUGUCAAAUUCGGCGAAACCUAAGCGCCCGCCCGGGCGUAUGGCAACGCCGAGCCAAGCUUCGGCGCCUGCGCCGAUGUAGGUGUAGGGACUAGACGGCACCCACCUAAGGCGAACGGUAUGGUGAAGGCAUAGUCUAGGGAGAGGCGAAAGUCACACAAACCGG [A111U A120G A145G C150G C169U U176A], the reverse-splicing fitness was found to be 0.0113.

As to GUGCCUUGCGCCGGGAAACCACGCAAGGGAUGGUGUCAAAUUCGGCGAAACCUAAGCGCCCGCCCGGGCGUAUGGCAACGCCGAGCCAAGCUUCGGCGCCUGCGCCGAUGUAGGUGUAGGGACUAGACGGCACCCACCUAAGGCGAACGGUAUGGUGAAGGCAUAGUCUAGGGAGCGGCGAAAGUCACACAAACCGG [A111U A120G A145G C150G C169U U176C], the reverse-splicing fitness was 0.015.

Source of the values: the RNAGym collection of RNA variant scans (doi:10.1093/molbev/msab373).
